Test results: patent US20020137138A1

Molecular target: human short form of the 5-HT3-A receptor (Genbank accession #D49394) (human) (UniProt P46098)
Assay: cell-based or functional assay

Sequence of human short form of the 5-HT3-A receptor (Genbank accession #D49394) (human) (P46098 24-478): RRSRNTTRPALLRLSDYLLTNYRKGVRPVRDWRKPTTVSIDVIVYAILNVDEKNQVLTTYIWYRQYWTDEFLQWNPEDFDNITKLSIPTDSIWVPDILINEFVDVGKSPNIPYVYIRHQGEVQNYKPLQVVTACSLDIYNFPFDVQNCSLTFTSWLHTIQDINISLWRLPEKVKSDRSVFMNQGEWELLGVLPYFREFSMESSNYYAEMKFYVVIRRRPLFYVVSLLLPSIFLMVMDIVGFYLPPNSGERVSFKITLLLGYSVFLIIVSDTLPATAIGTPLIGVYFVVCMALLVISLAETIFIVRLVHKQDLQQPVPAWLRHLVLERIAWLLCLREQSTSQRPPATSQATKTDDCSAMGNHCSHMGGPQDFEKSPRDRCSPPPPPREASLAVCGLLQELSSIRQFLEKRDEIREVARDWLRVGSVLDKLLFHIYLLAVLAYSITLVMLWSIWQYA

- 5-HT response, oocytes at a 1.8x fold 5-HT3-C to 5-HT3-A cRNA concentration: 20 % diminished
- peak current to 5-HT, oocytes injected with 5-HT3-C and 5-HT3-A(short) at a ratio of 2:1: -0.028 nA
- peak response to 10 µM 5-HT (two-electrode voltage clamp, Xenopus oocytes co-injected with 2-fold more 5-HT3-C cRNA, 0.67 ng): 10 % of control
- response to 10 µM 5-HT, oocytes injected with 5-HT3-C:5-HT3-A(short) at 10:1 (3.35 ng : 0.33 ng cRNA): -0.01 nA
Substance: human 5-HT3-C (human serotonin 5-HT3 receptor modifier subunit 5-HT3-C) (from UniProt Q8WXA8 28-447)
